According to article PMC9224634, “Noninvasive Mapping of Angiotensin Converting Enzyme-2 in Pigeons Using Micro Positron Emission Tomography” (Life, 2022):

Tests used:
ACE2 [1] = assay: in vivo; conditions: female, iv, 15 MBq
Protocol: Injection route: Chloral hydrate 10% was used for intramuscular anesthesia.
Micro PET/CT imaging: Four healthy pigeons (female) were injected with 15 MBq ^68Ga-HZ20 through the pterygoid vein, and then dynamic imaging was performed for 40 min to observe the dynamic distribution of the probe in the body. The images were acquired for 30 min, 40 min and 60 min, with a single PET scan time of 600 s. The Avator software was used to display the images, outline the region of interest for the main organs, record the maximum standard uptake values for the outlined areas, and calculate the dynamic changes in SUVmax for different organs. At the end of the 60 min imaging, the pigeons were euthanized and the main organs were obtained for in vitro imaging.

ACE2 [2] = biological target: ACE2; design: method as in PMID 34174177; conditions: cited from earlier work
ACE2 [3] = biological target: ACE2; design: method as in earlier work; conditions: ACE2-specific peptide inhibitor; ref 10 (Huang et al.); cited from earlier work

`CC(C)C[C@@H]1NC(=O)[C@@H]2CCCN2C(=O)[C@H](CO)NC(=O)[C@@H](NC(=O)[C@H](Cc2c[nH]cn2)NC(=O)[C@H](CO)NC(=O)[C@H](Cc2ccc(O)cc2)NC(=O)[C@H](CC(=O)O)NC(=O)CNC(=O)CN2CCN(CC(=O)O)CCN(CC(=O)O)CCN(CC(=O)O)CC2)CSSC[C@@H](C(=O)N[C@H](C(=O)N[C@@H](Cc2ccc(O)cc2)C(=O)N2CCC[C@H]2C(=O)N[C@@H](CC(=O)O)C(=O)N2CCC[C@H]2C(=O)N[C@@H](CCC(=O)O)C(=O)NCC(=O)NCC(=O)NCC(N)=O)[C@@H](C)O)NC(=O)[C@H](CCCCN)NC(=O)[C@H](Cc2c[nH]c3ccccc23)NC(=O)[C@H](Cc2c[nH]c3ccccc23)NC(=O)[C@@H]2CCCN2C(=O)[C@H](Cc2ccc(O)cc2)NC(=O)[C@H](Cc2ccc(O)cc2)NC(=O)[C@H](CCCNC(=N)N)NC1=O` [68Ga-HZ20, metal not drawn] showed an SUV at 40 min (ACE2 [1]; SUVmax heart, final) of 0.84 SUV, an SUV at 0 h (ACE2 [1]; SUVmax heart, initial) of 3.08 SUV and an SUV at 20 min (ACE2 [1]; SUVmax kidney) of 6.95 SUV. The SUV at 20 min (ACE2 [1]; SUVmax lung) was 1.11 SUV, the SUV at 1 h (ACE2 [1]; kidney uptake (SUV)) was 3.05 SUV and the SUV at 1 h (ACE2 [1]; liver uptake (SUV)) was 0.51 SUV. For the same molecule, the SUV at 40 min (ACE2 [1]; liver uptake (SUVmax)) was 2.51 SUV, the SUV (ACE2 [1]; liver uptake (SUVmax), initial) was 0.91 SUV and the SUV at 1 h (ACE2 [1]; lung uptake (SUV)) was 0.41 SUV. For the same molecule, the SUV at 1 h (ACE2 [1]; stomach uptake (SUV)) was 0.52 SUV and the SUV at 40 min (ACE2 [1]; stomach uptake (SUVmax), peak) was 0.63 SUV.

In the case of “Ac-GDYSHCSPLRYYPWWKCTYPDPEGGG-NH2 (disulfide) [DX600]”, the Kd (ACE2 [2]) is listed as 98.7 nM and the Ki (ACE2 [3]) is listed as 2.8 nM.
